This passage reports abundance fitness results from the Human Domainome abundance scans (Beltran et al. 2025).

B1: CD2-associated protein, residues 271 to 331; numbered along this chain, Q9Y5K6 (parent)
chain: KEYCRTLFAYEGTNEDELTFKEGEIIHLISKETGEAGWWRGELNGKEGVFPDNFAVQINEL

± gives the uncertainty stated by the source.

Variants of B1 are the subject of this data set. As to the kind of experiment: abundance fitness (aPCA) (normalised: wild type 0, dead -1); higher = more abundant; growth selection in yeast, the domain comes from the species named. As to conditions: Homo sapiens.
With KEYCRTLFAYEGTNEDELTFKEGEIIHLGSKETGEAGWWRGELNGKEGVFPDNFAVQINEL [I29G], the abundance fitness was -0.713 ± 0.092. For KEYCRTLFAYEGTNEDELTFKEGEIIHLHSKETGEAGWWRGELNGKEGVFPDNFAVQINEL [I29H] the value was -0.56 ± 0.26. KEYCRTLFAYEGTNEDELTFKEGEIIHLISKETGEAGWWRGELNGKEGVFPDNFAVQINEE [L61E]: the abundance fitness came to 0.026 ± 0.23. Under KEYCRTLFAYEGTNEDELTFKEGEIIHLISKETGEAGWWRGELNGKEGVFPDNFAVQINEC [L61C] stands 0.275 ± 0.14; under KEYCRTLFAYEGTNKDELTFKEGEIIHLISKETGEAGWWRGELNGKEGVFPDNFAVQINEL [E15K], -0.268 ± 0.11. For KEYCRTLFAYEGTNGDELTFKEGEIIHLISKETGEAGWWRGELNGKEGVFPDNFAVQINEL [E15G] the value was -0.107 ± 0.061. Consider KEYCRTLFAYEGTNADELTFKEGEIIHLISKETGEAGWWRGELNGKEGVFPDNFAVQINEL [E15A], for which the abundance fitness was -0.072 ± 0.073. Under KEYERTLFAYEGTNEDELTFKEGEIIHLISKETGEAGWWRGELNGKEGVFPDNFAVQINEL [C4E] stands -1.09 ± 0.24; under KEYCRGLFAYEGTNEDELTFKEGEIIHLISKETGEAGWWRGELNGKEGVFPDNFAVQINEL [T6G], -0.528 ± 0.11. For KEYCRYLFAYEGTNEDELTFKEGEIIHLISKETGEAGWWRGELNGKEGVFPDNFAVQINEL [T6Y] the value was -0.621 ± 0.12; for KEYCRMLFAYEGTNEDELTFKEGEIIHLISKETGEAGWWRGELNGKEGVFPDNFAVQINEL [T6M], -0.474 ± 0.22; for KEYCRKLFAYEGTNEDELTFKEGEIIHLISKETGEAGWWRGELNGKEGVFPDNFAVQINEL [T6K], -0.607 ± 0.13. For the variant KEYCRRLFAYEGTNEDELTFKEGEIIHLISKETGEAGWWRGELNGKEGVFPDNFAVQINEL [T6R], the abundance fitness was -0.682 ± 0.1. For KEYCRNLFAYEGTNEDELTFKEGEIIHLISKETGEAGWWRGELNGKEGVFPDNFAVQINEL [T6N] the value was -0.926 ± 0.29; for KEYCRTLFAYEGTNEDELTNKEGEIIHLISKETGEAGWWRGELNGKEGVFPDNFAVQINEL [F20N], -0.551 ± 0.12; for KEYCRTLFAYEGTNEDELTPKEGEIIHLISKETGEAGWWRGELNGKEGVFPDNFAVQINEL [F20P], -0.893 ± 0.15. For KEYCRTLFAYEGTNEDELTMKEGEIIHLISKETGEAGWWRGELNGKEGVFPDNFAVQINEL [F20M] the value was -0.714 ± 0.11; for KEYCRTLFAYEGTNEDELTFKEGEIIHLISKETGEAGWWRGELNGKEGVVPDNFAVQINEL [F50V], -0.674 ± 0.086; for KEYCRTLFACEGTNEDELTFKEGEIIHLISKETGEAGWWRGELNGKEGVFPDNFAVQINEL [Y10C], -0.659 ± 0.14. As for KEYCRTLFAYEGTNEDEFTFKEGEIIHLISKETGEAGWWRGELNGKEGVFPDNFAVQINEL [L18F], the abundance fitness is -0.685 ± 0.18. For KEYCRTLFAYEGTNEDEMTFKEGEIIHLISKETGEAGWWRGELNGKEGVFPDNFAVQINEL [L18M] the value was -0.335 ± 0.14. Under KEYCRTLFAYEGTNEDEITFKEGEIIHLISKETGEAGWWRGELNGKEGVFPDNFAVQINEL [L18I] stands -0.513 ± 0.17. Take KEYCRTLFAYEGTNEDELTFKEGEIIHLISKETGEAGWWRGELNIKEGVFPDNFAVQINEL [G45I]: the abundance fitness was -0.453 ± 0.2. Under KEYCRTLFAYEGTNEDELTFKEGEIIHLISKETGEAGWWRGELNCKEGVFPDNFAVQINEL [G45C] stands -0.322 ± 0.15; under KEYCRTLFAYEGTNEDELTFKEGEIIHLISKETGEAGWWRGELNSKEGVFPDNFAVQINEL [G45S], -0.376 ± 0.064. In the case of KEYCRTLFAYEGTNEDELTFKEGSIIHLISKETGEAGWWRGELNGKEGVFPDNFAVQINEL [E24S], the abundance fitness is -0.461 ± 0.055. In the case of KEYCRTLFAYEGTNEDELTFKEGKIIHLISKETGEAGWWRGELNGKEGVFPDNFAVQINEL [E24K], the abundance fitness was -0.697 ± 0.093. In the case of KEYCRTLFAYEGTNEDELTFKEGLIIHLISKETGEAGWWRGELNGKEGVFPDNFAVQINEL [E24L], the abundance fitness was -0.599 ± 0.045. Under KEYCRTLFAYEGTNEDELTFKEGYIIHLISKETGEAGWWRGELNGKEGVFPDNFAVQINEL [E24Y] stands -0.77 ± 0.14.

KEYCRTLFAYEGTNEDELTFKEGEIIHLISKETGEAFWWRGELNGKEGVFPDNFAVQINEL [G37F]: the abundance fitness was -0.492 ± 0.25. For KEYCRTLFAYEGTNEDELTFKEGEIIHLISKETGEAGWWRGELNGKEGVFPDNFAVQIIEL [N59I] the value was -0.702 ± 0.45; for KEYCRTLFAYEGTNEDELTFKEGEIIHLISKETGEDGWWRGELNGKEGVFPDNFAVQINEL [A36D], -0.082 ± 0.11; for KEYCRTLFAYEGTNEDELTFKEGEIIHLISKETGEGGWWRGELNGKEGVFPDNFAVQINEL [A36G], -0.235 ± 0.051. Turning to KEYCRTLFAYEGTNEDELTFKEGEIIHLISKETGEYGWWRGELNGKEGVFPDNFAVQINEL [A36Y], the abundance fitness is -0.334 ± 0.15.

KEYCRTLFAYEGTNEDELTFKEGEIIHLISKETGEIGWWRGELNGKEGVFPDNFAVQINEL [A36I]: the abundance fitness is -0.193 ± 0.17. For KEYCRTLFAYEGTNEDELTFKEGEIIHLISKETGEAGGWRGELNGKEGVFPDNFAVQINEL [W38G] the value was -0.559 ± 0.13; for KEYCRTLFAYEGTNEDELTFKEGEIIHLISKETGEAGCWRGELNGKEGVFPDNFAVQINEL [W38C], -0.345 ± 0.072. For KEYCRTLFAYEGTNEDELTFKEGEIIHLISKETGEAGKWRGELNGKEGVFPDNFAVQINEL [W38K] the value was -0.034 ± 0.077. Under KEYCRTLFAYEGTNEDELTFKEGEIIHLISKETGEAGWWRGELNGDEGVFPDNFAVQINEL [K46D] stands -0.39 ± 0.19; under KEYCRTLFAYEGTNEDELTFKEGEIIHLISKETGEAGWWRGELNGYEGVFPDNFAVQINEL [K46Y], -0.34 ± 0.12; under KEYCRTLFAYEGTNEDELTFKEGEIIHLISKETGEAGWWRGEENGKEGVFPDNFAVQINEL [L43E], -0.703 ± 0.14.

KEYCRTLFAYEGTNEDELTFKEGEIIHLISKETGEAGWWRGELNGKEGVFPDNFAVCINEL [Q57C]: the abundance fitness is -0.139 ± 0.1.

For KEYCRTLFAYEGTNEDELTFKEGEIIHLISKETGEAGWWRGELNGKEGVFPDNFAVRINEL [Q57R], the abundance fitness was -0.155 ± 0.05.
